The values that follow come from US20120195897A1 (US Dept. of Health and Human Services, published 2012).

This experiment addresses T1, IGF ligand 2 (IGF-2) (human, UniProt P01344 25-91).
T1 construct: Used as antigen in ELISA and as stimulus (10 nM) on MCF-7 cells; also called insulin-like growth factor 2
Description: ELISA.

T1 sequence (P01344 25-91 limits assumed): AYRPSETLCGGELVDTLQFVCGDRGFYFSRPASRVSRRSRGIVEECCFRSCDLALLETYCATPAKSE

B1: m636 (VHH)
VHH: QVQLVQSGGGLVQPGGSLRLSCAASYYSLQHDNFPYTFMSWVRQAPGQRLEWVSGISGSGGSTYYADSVKGRFTISRDNSKNTLYLQMNTLRAEDTAMYYCARIRWLQDLDYWGQGTLVTVSS
notes: Human VH single domain antibody (dAb) selected from phage library m91; also called dAb m636; IGF-2 dAb
With B1, the binding result is recorded as “binds”.
